Target: T1, human CCL8 (residues Gln-24 to Pro-99), expressed in E. coli (human), P80075
T1 chain: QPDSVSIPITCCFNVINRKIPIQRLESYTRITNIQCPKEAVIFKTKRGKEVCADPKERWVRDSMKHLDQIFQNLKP
Experiment: native MS; CCL8 alone in 200 mM ammonium acetate pH 6.5; modified Q Exactive, capillary voltage 1.2 kV, source temperature 100 °C
Conditions: remark: other sources report otherwise

B1: human CCL8 (residues Gln-24 to Pro-99), expressed in E. coli, P80075 24-99 (ligand)
chain: T1 chain
stoichiometry N: 2

Source: PMC5912465
